Test results reported in IntAct's records for PubMed 23700447.

B1: Membrane protein (Human SARS coronavirus), P59596 (parent)
chain: MADNGTITVEELKQLLEQWNLVIGFLFLAWIMLLQFAYSNRNRFLYIIKLVFLWLLWPVTLACFVLAAVYRINWVTGGIAIAMACIVGLMWLSYFVASFRLFARTRSMWSFNPETNILLNVPLRGTIVTRPLMESELVIGAVIIRGHLRMAGHSLGRCDIKDLPKEITVATSRTLSYYKLGASQRVGTDSGFAAYNRYRIGNYKLNTDHAGSNDNIALLVQ

Variants of: B1
Settings: with ncap_sars N

Variant	effect of a mutation on the interaction
L218A;L219A	with no effect
